The results in this text go back to the supplement of paper PMC10567573.

± gives the standard deviation.

The series can be described thus: protein stability index of a GFP-peptide fusion (GPS, HEK-293T) (PSI 1-6); higher = more stable.
Where [1] appears, read: treatment: DMSO, c terminus: a fixed tail appended.
[2] abbreviates: treatment: MLN4924 1 uM, 8 h, c terminus: a fixed tail appended.
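Note: 24-mer peptide tiles fused after GFP, lentivirally expressed, FACS-sorted into six equal bins by GFP/DsRed ratio, decoded by Illumina sequencing, PSI is the read-weighted mean bin number.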

In the case of RDRDGRITVAELREAVPALLGEPL [CABP4], the protein stability index under setting [1] was determined as 3.78 ± 0.23 and the protein stability index under setting [2] worked out at 3.95 ± 0.35.

Consider REAATKHSKASLPTGEGSISHEEQ [CHCHD6], for which the protein stability index by setting is: under setting [1], 5.3 ± 0.24; under setting [2], 5.34 ± 0.3.

On to RELNDRLAVYIDKVRSLETENSAL [LMNB1], for which the protein stability index turned out to be 3.33 ± 0.24 under setting [1] and 3.04 ± 0.34 under setting [2].

For the sequence REQLQAEASERFAAGYIQCMHEVH [HES6], the protein stability index was 3.62 ± 0.37 under setting [1] and 3.77 ± 0.22 under setting [2].

For the sequence RERADIGGLMARPEYREWNPELIK [FAM107A], the protein stability index came out at 4.16 ± 0.12 under setting [1] and 3.8 ± 0.18 under setting [2].

Consider RESRILFSTWNLDHIIEKKRTIIP [DFFB], for which the protein stability index by setting is: under setting [1], 2.35 ± 0.22; under setting [2], 2.52 ± 0.22.

Consider REVDLNGDGTVDFDEFVMMLSRH [CABP4], for which the protein stability index runs as follows: (treatment: DMSO, c terminus: native) 4 ± 0.17; (treatment: MLN4924 1 uM, 8 h, c terminus: native) 4.23 ± 0.28.

Consider REVEQWFATQTEELNKQVVSSSEQ [KRT33B], for which the protein stability index was found to be 4.98 ± 0.23 under setting [1] and 4.87 ± 0.17 under setting [2].

Consider REWRCCPGHSGVSCEEVAASSASL [EMID1], for which the protein stability index runs as follows: under setting [1], 3.74 ± 0.089; under setting [2], 3.55 ± 0.31.

For RFNKLGLDHLSLGEEPVPHQQVEE [NEK8], the protein stability index worked out at 4.91 ± 0.22 under setting [1] and 4.89 ± 0.26 under setting [2].

As to RGLRYYYDKNIIHKTAGKRYVYRF [ETS1], the protein stability index amounted to 2.32 ± 0.2 under setting [1] and 2.46 ± 0.18 under setting [2].

Consider RGQEPARADQLCQQELRELRRELE [PRPH], for which the protein stability index by setting is: under setting [1], 4.48 ± 0.36; under setting [2], 4.53 ± 0.5.

Turning to RGRYGPPSRRSENRVVVSGLPPSG [SRSF1], the protein stability index turned out to be 4.08 ± 0.14 under setting [1] and 4.16 ± 0.17 under setting [2].

Sequence RGVDVSLQGKDAWLPLHYAAWQGH [RIPK4] had a protein stability index under setting [1] of 2.58 ± 0.42 and a protein stability index under setting [2] of 2.45 ± 0.29.

RIKEVEHMTRHLEESEKAMQERVQ [LRRC45] had a protein stability index under setting [1] of 5 ± 0.22 and a protein stability index under setting [2] of 4.99 ± 0.21.

For the sequence RKDFSELRSAGVEQLMYIKEDLII [FAM50A], the protein stability index by setting is: under setting [1], 2.24 ± 0.21; under setting [2], 2.13 ± 0.34.

The sequence RKLFEVESVTHHDYRMELAQAGTP [SPAG8] showed a protein stability index under setting [1] of 3.64 ± 0.33 and a protein stability index under setting [2] of 3.57 ± 0.21.

As to RKSVRYTRQKKNLPDSPLRFDGLP [TRIM15], the protein stability index reads like this: under setting [1], 3.59 ± 0.19; under setting [2], 3.66 ± 0.12.

The sequence RLEAARLSLEEELSRVKAAALSER [LRRC45] yielded a protein stability index under setting [1] of 3.71 ± 0.21 and a protein stability index under setting [2] of 4.04 ± 0.39.

As for RLFLDGEEEKEWAFEESKIDEHHF [AASDHPPT], the protein stability index is, setting by setting: under setting [1], 4.37 ± 0.26; under setting [2], 4.42 ± 0.21.

In the case of RLHNLYSTPRCAQQAALPRLSRRM [CBY2], the protein stability index reads like this: under setting [1], 2.28 ± 0.31; under setting [2], 2.55 ± 0.4.

For RLKKQLRAAQLQHSEKMAQYLEEE [CCDC6], the protein stability index under setting [1] is 4.06 ± 0.29 and the protein stability index under setting [2] came to 4.11 ± 0.26.

For RLRKCYEVGMVKCGSRRERCGYRL [ESR2], the protein stability index turned out to be 2.54 ± 0.4 under setting [1] and 2.43 ± 0.29 under setting [2].

As for RLVKEGRFVPSNPIGILTTSYCEL [PPTC7], the protein stability index is, setting by setting: under setting [1], 2.39 ± 0.21; under setting [2], 2.12 ± 0.47.

Consider RNLLVENIIDIYKQESTRPEKKSD [TRIM55], for which the protein stability index runs as follows: under setting [1], 4.42 ± 0.51; under setting [2], 4.73 ± 0.11.

As to RNQGNFSVVGTVLAATQAEKAVAN [ZC2HC1C], the protein stability index amounted to 4.28 ± 0.15 under setting [1] and 4.24 ± 0.42 under setting [2].

Regarding RNSGIIGGKYLGRTKVVKPYSTVD [EFHC1], the protein stability index by setting is: under setting [1], 2.91 ± 0.26; under setting [2], 3.46 ± 0.17.

In the case of RPEEEEDELAHRCSSFMAPPVTDL [CPOX], the protein stability index is 5.05 ± 0.26 under setting [1] and 5.03 ± 0.18 under setting [2].

As for RPELPPVCRARPRACSHLIRLMQR [RIPK4], the protein stability index by setting is: under setting [1], 2.52 ± 0.26; under setting [2], 2.49 ± 0.31.

On to RPLQVNTADHRIYSYVVSRPQPRG [FAF2], for which the protein stability index runs as follows: under setting [1], 3.27 ± 0.43; under setting [2], 3.49 ± 0.2.

In the case of RQITSPVSGINGDIRAKKIASIAD [HNF4A], the protein stability index is 4.1 ± 0.25 under setting [1] and 4.13 ± 0.2 under setting [2].

Consider RQVEKRRNSGPVVEKLKQMQEFFG [MMP1], for which the protein stability index is, setting by setting: under setting [1], 3.04 ± 0.57; under setting [2], 3.07 ± 0.14.

For the sequence RQVPGSDPACYEFLWGPRALIETS [MAGEA6], the protein stability index under setting [1] stood at 2.62 ± 0.56 and the protein stability index under setting [2] is 2.85 ± 0.35.

On to RRLLEGEDAHLTQYKKEPVTTRQV [KRT17], for which the protein stability index turned out to be 4.56 ± 0.25 under setting [1] and 4.66 ± 0.18 under setting [2].

On to RRSFLIEHQRSHTGERPHQCIECG [ZSCAN9], for which the protein stability index came out at 3.3 ± 0.39 under setting [1] and 3.8 ± 0.35 under setting [2].

In the case of RRSIRYGREVELKPYIAAHFDVLP [PTPRD], the protein stability index was determined as 2.5 ± 0.41 under setting [1] and 2.46 ± 0.43 under setting [2].

Regarding RSHENKLRQLTAELAEHRCHPVER [PSD2], the protein stability index is, setting by setting: under setting [1], 3.84 ± 0.18; under setting [2], 4.02 ± 0.14.

On to RSLLLKYARTPTLDPDTMHARLRL [TRIM14], for which the protein stability index runs as follows: under setting [1], 2.45 ± 0.35; under setting [2], 2.37 ± 0.44.

RTEIISRSWFPSAPGSASSSKVSG [YJU2B]: the protein stability index came out at 3.94 ± 0.13 under setting [1] and 3.97 ± 0.15 under setting [2].

For RTLPAFQVPYPPRQLLRDFQSRLP [P3H4], the protein stability index is, setting by setting: under setting [1], 2.76 ± 0.2; under setting [2], 2.92 ± 0.54.

In the case of RTVNALEIELQAQHNLRYSLENTL [KRT33B], the protein stability index is, setting by setting: under setting [1], 2.31 ± 0.25; under setting [2], 2.29 ± 0.22.

Take RVAEVSRVRVELQEQNGRLQAELA [LRRC45]: the protein stability index runs as follows: under setting [1], 4.11 ± 0.3; under setting [2], 4.19 ± 0.13.

As to RVNEKEIVRLRTIGELLAPAAPFD [WSB1], the protein stability index under setting [1] turned out to be 3.44 ± 0.2 and the protein stability index under setting [2] came to 3.5 ± 0.21.

With RVWLKRDSGQYWPSIYHTMASPCS [WDFY1], the protein stability index reads like this: under setting [1], 2.06 ± 0.27; under setting [2], 2.16 ± 0.21.

As for RYAPLSFRNPMMSKLRNYRKDLAK [VTI1B], the protein stability index is, setting by setting: under setting [1], 2.76 ± 0.23; under setting [2], 2.74 ± 0.18.

SAAPGHPQDGSYPRQADHDDHECC [KCNA1] registered a protein stability index under setting [1] of 5.39 ± 0.4 and a protein stability index under setting [2] of 5.6 ± 0.1.

With SAASGARFPLDSAQDPDVGTNTVS [PCDHGC5], the protein stability index is, setting by setting: under setting [1], 5.39 ± 0.12; under setting [2], 5.2 ± 0.31.

Take SAEKCGPPPPIDNGDITSFLLSVY [CFHR2]: the protein stability index by setting is: under setting [1], 2.4 ± 0.16; under setting [2], 2.33 ± 0.27.

Turning to SAETGSPRLTMHYPCLEKPRIWSL [IRX6], the protein stability index by setting is: under setting [1], 2.4 ± 0.1; under setting [2], 2.22 ± 0.43.

The sequence SAEWFITAVGAILAGGLCVGIYAT [ACSBG2] registered a protein stability index under setting [1] of 3.53 ± 0.57 and a protein stability index under setting [2] of 3.18 ± 0.091.

As to SAIQALRSSVSRVFDCLKDGMRNK [MED27], the protein stability index under setting [1] is 2.7 ± 0.33 and the protein stability index under setting [2] came to 2.49 ± 0.28.

Take SALTDRTSRAPSTYTYTSRPRALP [RSPH3]: the protein stability index is 4.01 ± 0.26 under setting [1] and 3.7 ± 0.29 under setting [2].

As for SAPPITPECRQVLKTSRKDVKDKE [CHGB], the protein stability index runs as follows: under setting [1], 5.26 ± 0.25; under setting [2], 5.41 ± 0.22.

Regarding SAVQYFQFYGYLSQQQNMMQDYVR [CARM1], the protein stability index is 2.6 ± 0.72 under setting [1] and 3.35 ± 0.64 under setting [2].

Take SCQEVLRKGCLRFQLPERGSRLCL [DFFB]: the protein stability index is, setting by setting: under setting [1], 2.27 ± 0.48; under setting [2], 2.4 ± 0.29.

Regarding SCYKGHREIARYLLEQGAQVNRRS [FEM1A], the protein stability index was 2.93 ± 0.14 under setting [1] and 3.11 ± 0.48 under setting [2].

As to SDPEISDVDEDEPGGLVGSADVVS [PPFIA4], the protein stability index was determined as 5.54 ± 0.34 under setting [1] and 5.35 ± 0.45 under setting [2].

SDSAPRNKISRFQAPISAPEYTYG [MFF] returned a protein stability index under setting [1] of 3.59 ± 0.71 and a protein stability index under setting [2] of 3.56 ± 0.21.

In the case of SDVLIGDILVLLGASLYAISNVCE [SLC35F2], the protein stability index turned out to be 2.79 ± 0.28 under setting [1] and 3.36 ± 0.67 under setting [2].

In turn, SEKAANDDHSVRVAREDVRESCPP [CPXM2] had a protein stability index under setting [1] of 5.49 ± 0.22 and a protein stability index under setting [2] of 5.44 ± 0.061.

In the case of SELERESKVVVPPLPGKAFLRQLP [SNX3], the protein stability index is 3.67 ± 0.18 under setting [1] and 3.86 ± 0.59 under setting [2].

On to SEMKKCSDYESIEVPDSYTGPRLS [PPEF2], for which the protein stability index turned out to be 4.58 ± 0.35 under setting [1] and 4.53 ± 0.11 under setting [2].

SEWQRKLEAAEALLTLRNSAQAPP [DMRTC1]: the protein stability index by setting is: under setting [1], 4.45 ± 0.55; under setting [2], 4.63 ± 0.26.

Regarding SFRELLTFFCTNATIHGAIRLVCS [SCNN1D], the protein stability index reads like this: under setting [1], 2.85 ± 0.36; under setting [2], 2.99 ± 0.39.

In the case of SFVDKLLDLMPRLMTSKPAEVVKI [INTS4], the protein stability index is 2.73 ± 0.64 under setting [1] and 2.61 ± 0.63 under setting [2].

Turning to SFVVLLYILDNETNFVVQVSVFIG [CLPTM1], the protein stability index came out at 3.15 ± 0.41 under setting [1] and 3.39 ± 0.56 under setting [2].

Regarding SGGQTSWDSGCLAPPSTRTSHSLP [PLEKHN1], the protein stability index reads like this: under setting [1], 4.1 ± 0.068; under setting [2], 3.98 ± 0.21.

In the case of SGMTEVERTYSANCSDFLESKGCF [SPATS1], the protein stability index is, setting by setting: under setting [1], 3.62 ± 0.24; under setting [2], 3.62 ± 0.43.

Consider SGPAASEHSHRSHHSLASSLRSHH [DVL3], for which the protein stability index runs as follows: under setting [1], 3.92 ± 0.16; under setting [2], 3.91 ± 0.33.

As to SGSGGTVAPATMGSARSHASSRAS [ZBTB22], the protein stability index is, setting by setting: under setting [1], 4.77 ± 0.18; under setting [2], 4.68 ± 0.24.

Consider SGSGKSGGYGFGRGRASGFAGSMF [KRT71], for which the protein stability index was 2.8 ± 0.24 under setting [1] and 2.69 ± 0.41 under setting [2].

In the case of SIESIKWMIEEKATITSRGSSLSG [LURAP1L], the protein stability index was 3.1 ± 0.2 under setting [1] and 3.39 ± 0.41 under setting [2].
